What was measured:
[1] = molecular target: SP62-L669S (gp41 652-671)-GTH1 peptide anchored to liposomes; experiment: SPR on peptide-liposomes, encounter-docking (two-step) model, forward rate of the docking step; row 'L669S 2F5 peptide liposome'
[2] = molecular target: SP62 (gp41 652-671)-GTH1 peptide anchored to liposomes; experiment: SPR on peptide-liposomes, encounter-docking (two-step) model, forward rate of the docking step; row '2F5 peptide liposome'
[3] = molecular target: SP62 (gp41 652-671)-GTH1 peptide anchored to liposomes; experiment: SPR on peptide-liposomes, encounter-docking (two-step) model, association of the encounter step; row '2F5 peptide liposome'
[4] = molecular target: SP62-L669S (gp41 652-671)-GTH1 peptide anchored to liposomes; experiment: SPR on peptide-liposomes, encounter-docking (two-step) model, reverse rate of the docking step; row 'L669S 2F5 peptide liposome'
[5] = molecular target: TND-669S HIV-1 envelope (HIV-1); experiment: cell-based or functional assay
[6] = molecular target: TND-669L HIV-1 envelope (HIV-1); experiment: cell-based or functional assay
[7] = molecular target: SP62-L669S (gp41 652-671)-GTH1 peptide anchored to liposomes; experiment: SPR on peptide-liposomes, encounter-docking (two-step) model, association of the encounter step; row 'L669S 2F5 peptide liposome'
[8] = molecular target: SP62 (gp41 652-671)-GTH1 peptide anchored to liposomes; experiment: SPR on peptide-liposomes, encounter-docking (two-step) model, dissociation of the encounter step; row '2F5 peptide liposome'
[9] = molecular target: SP62-L669S (gp41 652-671)-GTH1 peptide anchored to liposomes; experiment: SPR, peptide anchored to phospholipid liposomes
[10] = molecular target: SP62 (gp41 652-671)-GTH1 peptide anchored to liposomes; experiment: SPR, peptide anchored to phospholipid liposomes
[11] = molecular target: SP62-L669S (gp41 652-671)-GTH1 peptide anchored to liposomes; experiment: SPR on peptide-liposomes, encounter-docking (two-step) model, dissociation of the encounter step; row 'L669S 2F5 peptide liposome'
[12] = molecular target: SP62 (gp41 652-671)-GTH1 peptide anchored to liposomes; experiment: SPR on peptide-liposomes, encounter-docking (two-step) model, reverse rate of the docking step; row '2F5 peptide liposome'

Q: What does the source list for mAb 2F5 (antibody)?
A: ka2 [1]: 0.0054 s⁻¹; ka2 [2]: 0.0181 s⁻¹; ka1 [3]: 931000 M⁻¹ s⁻¹; kd2 [4]: 2e-05 s⁻¹; mean IC50, neutralisation of Env-pseudovirus on JC53-BL cells [5]: 0.014 µg/mL; mean IC50, neutralisation of Env-pseudovirus on JC53-BL cells [6]: 3.92 µg/mL; ka1 [7]: 498000 M⁻¹ s⁻¹; kd1 [8]: 0.00692 s⁻¹; response unit (background subtracted) at 10 seconds after the injection was stopped [9]: 617 RU; response unit at 10 seconds after the injection was stopped [10]: 495 RU; kd1 [11]: 0.00119 s⁻¹; kd2 [12]: 0.00037 s⁻¹

Q: With mAb 4E10 (antibody) as the substance, how does the fold lower neutralisation IC50 against TND-669S than against TND-669L [5] read?
A: Its fold lower neutralisation IC50 against TND-669S than against TND-669L is 275 fold.

Q: And the mean IC50, neutralisation of Env-pseudovirus on JC53-BL cells [5]?
A: Its mean IC50, neutralisation of Env-pseudovirus on JC53-BL cells is 0.031 µg/mL.

Q: What about the mean IC50, neutralisation of Env-pseudovirus on JC53-BL cells [6] of the same substance?
A: The mean IC50, neutralisation of Env-pseudovirus on JC53-BL cells was 8.49 µg/mL.

Q: With mAb 17b (antibody) as the substance, how does the increase in neutralization sensitivity against TND-669L [5] read?
A: The increase in neutralization sensitivity against TND-669L was 2 fold.

Q: How did the enhancement of neutralization sensitivity against TND-669L [5] turn out when mAb 447-52D (antibody) was run?
A: The enhancement of neutralization sensitivity against TND-669L was > 161 fold.

Q: What about the neutralization of Env-pseudovirus, IC50 [5] of the same substance?
A: The neutralization of Env-pseudovirus, IC50 was 0.31 µg/mL.
